From patent US20150203577A1 (Chugai, published 2015)
Numbering of substitutions follows the chain as printed.

T1: mouse FcγRIII extracellular domain, C-terminally His-tagged (mouse, UniProt P08508 31-215)
T1 construct: the whole entry is named; also called mFcγRIII; mFcgRIII
T1 chain: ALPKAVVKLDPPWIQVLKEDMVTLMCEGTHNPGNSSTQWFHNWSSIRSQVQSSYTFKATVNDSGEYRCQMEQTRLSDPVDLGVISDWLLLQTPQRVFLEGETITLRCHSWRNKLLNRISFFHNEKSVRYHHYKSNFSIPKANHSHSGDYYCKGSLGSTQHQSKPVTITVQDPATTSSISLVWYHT

T2: mouse FcγRII extracellular domain, C-terminally His-tagged (mouse, UniProt P08101 30-210)
T2 construct: the whole entry is named; also called mFcγRII; mFcgRII
T2 sequence: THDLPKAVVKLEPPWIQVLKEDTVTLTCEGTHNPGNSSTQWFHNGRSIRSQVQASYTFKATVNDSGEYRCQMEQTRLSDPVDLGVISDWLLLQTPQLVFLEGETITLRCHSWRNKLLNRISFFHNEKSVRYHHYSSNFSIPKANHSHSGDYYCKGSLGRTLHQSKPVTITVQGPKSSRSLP

B1: H237-MB634/MRAL-k0 (antibody, mouse IgG1, kappa)
heavy: QVQLQESGPGLVKPSETLSLTCAVSGHSISHDHAWSWVRQPPGEGLEWIGFISYSGITNYNPSLQGRVTISRDNSKNTLYLQMNSLRAEDTAVYYCARSLARTTAMDYWGEGTLVTVSSAKTTPPSVYPLAPGSAAQTNSMVTLGCLVKGYFPEPVTVTWNSGSLSSGVHTFPAVLQSDLYTLSSSVTVPSSTWPSETVTCNVAHPASSTKVDKKIVPRDCGCKPCICENYEVENVFIFPPKPKDVLTITLTPKVTCVVVDISKDDPEVQFSWFVDDVEVHTAQTQPREEQFNSTFRSVSELPIMHQDWLNGKEFKCRVNSAAFPAPIEKTISKTKGRPKAPQVYTIPPPKEQMAKDKVSLTCMITDFFPEDITVEWQWNGQPAENYKNTQPIMDTDGSYFVYSKLNVQKSNWEAGNTFTCSVLHEGLHNHHTEKSLSHSPGK
light: not shown
notes: copies: 2 + 2
B2: H237-MB635/MRAL-k0 (antibody, mouse IgG1, kappa)
heavy: B1 heavy with N230T
light: not shown
notes: copies: 2 + 2
B3: H237-MB636/MRAL-k0 (antibody, mouse IgG1, kappa)
heavy: B1 heavy with N230V
light: not shown
notes: copies: 2 + 2
B4: H237-MB637/MRAL-k0 (antibody, mouse IgG1, kappa)
heavy: B1 heavy with N230P, Y231A
light: not shown
notes: copies: 2 + 2
B5: H237-MB638/MRAL-k0 (antibody, mouse IgG1, kappa)
heavy: B1 heavy with E229I, N230P, Y231A
light: not shown
notes: copies: 2 + 2
B6: H237-MB639/MRAL-k0 (antibody, mouse IgG1, kappa)
heavy: B1 heavy with N230P, Y231N
light: not shown
notes: copies: 2 + 2
B7: H237-MB640/MRAL-k0 (antibody, mouse IgG1, kappa)
heavy: B1 heavy with E229Q, N230P, Y231N
light: not shown
notes: copies: 2 + 2
B8: H237-MB641/MRAL-k0 (antibody, mouse IgG1, kappa)
heavy: B1 heavy with N230A, N235Y
light: not shown
notes: copies: 2 + 2
B9: H237-MB642/MRAL-k0 (antibody, mouse IgG1, kappa)
heavy: B1 heavy with N230D, N235Y
light: not shown
notes: copies: 2 + 2
B10: H237-MB643/MRAL-k0 (antibody, mouse IgG1, kappa)
heavy: B1 heavy with N235Y
light: not shown
notes: copies: 2 + 2
B11: H237-MB644/MRAL-k0 (antibody, mouse IgG1, kappa)
heavy: B1 heavy with N230T, N235Y
light: not shown
notes: copies: 2 + 2
B12: H237-MB645/MRAL-k0 (antibody, mouse IgG1, kappa)
heavy: B1 heavy with N230V, N235Y
light: not shown
notes: copies: 2 + 2
B13: H237-MB646/MRAL-k0 (antibody, mouse IgG1, kappa)
heavy: B1 heavy with N230P, Y231A, N235Y
light: not shown
notes: copies: 2 + 2
B14: H237-MB647/MRAL-k0 (antibody, mouse IgG1, kappa)
heavy: B1 heavy with E229I, N230P, Y231A, N235Y
light: not shown
notes: copies: 2 + 2
B15: H237-MB648/MRAL-k0 (antibody, mouse IgG1, kappa)
heavy: B1 heavy with N230P, Y231N, N235Y
light: not shown
notes: copies: 2 + 2
B16: H237-MB649/MRAL-k0 (antibody, mouse IgG1, kappa)
heavy: B1 heavy with E229Q, N230P, Y231N, N235Y
light: not shown
notes: copies: 2 + 2
B17: H237-MB650/MRAL-k0 (antibody, mouse IgG1, kappa)
heavy: B1 heavy with N230A, N235F
light: not shown
notes: copies: 2 + 2
B18: H237-MB651/MRAL-k0 (antibody, mouse IgG1, kappa)
heavy: B1 heavy with N230D, N235F
light: not shown
notes: copies: 2 + 2
B19: H237-MB652/MRAL-k0 (antibody, mouse IgG1, kappa)
heavy: B1 heavy with N235F
light: not shown
notes: copies: 2 + 2
B20: H237-MB653/MRAL-k0 (antibody, mouse IgG1, kappa)
heavy: B1 heavy with N230T, N235F
light: not shown
notes: copies: 2 + 2
B21: H237-MB654/MRAL-k0 (antibody, mouse IgG1, kappa)
heavy: B1 heavy with N230V, N235F
light: not shown
notes: copies: 2 + 2
B22: H237-MB655/MRAL-k0 (antibody, mouse IgG1, kappa)
heavy: B1 heavy with N230P, Y231A, N235F
light: not shown
notes: copies: 2 + 2
B23: H237-MB657/MRAL-k0 (antibody, mouse IgG1, kappa)
heavy: B1 heavy with N230P, Y231N, N235F
light: not shown
notes: copies: 2 + 2
B24: H237-MB658/MRAL-k0 (antibody, mouse IgG1, kappa)
heavy: B1 heavy with E229Q, N230P, Y231N, N235F
light: not shown
notes: copies: 2 + 2
B25: H237-MB704/MRAL-k0 (antibody, mouse IgG1, kappa)
heavy: B1 heavy with N230P, Y231A, N235A
light: not shown
notes: copies: 2 + 2
B26: H237-MB705/MRAL-k0 (antibody, mouse IgG1, kappa)
heavy: B1 heavy with N230P, Y231A, N235G
light: not shown
notes: copies: 2 + 2
B27: H237-MB708/MRAL-k0 (antibody, mouse IgG1, kappa)
heavy: B1 heavy with N230P, Y231A, N235P
light: not shown
notes: copies: 2 + 2
B28: H237-MB709/MRAL-k0 (antibody, mouse IgG1, kappa)
heavy: B1 heavy with N230P, Y231A, N235T
light: not shown
notes: copies: 2 + 2
B29: H237-MB710/MRAL-k0 (antibody)
heavy: B1 heavy with N230P, Y231A, N235Q
light: not shown
notes: copies: 2 + 2
B30: H237-MB713/MRAL-k0 (antibody, mouse IgG1, kappa)
heavy: B1 heavy with N230P, Y231N, N235A
light: not shown
notes: copies: 2 + 2
B31: H237-MB714/MRAL-k0 (antibody, mouse IgG1, kappa)
heavy: B1 heavy with N230P, Y231N, N235G
light: not shown
notes: copies: 2 + 2
B32: H237-MB715/MRAL-k0 (antibody, mouse IgG1, kappa)
heavy: B1 heavy with N230P, Y231N, N235V
light: not shown
notes: copies: 2 + 2
B33: H237-MB716/MRAL-k0 (antibody, mouse IgG1, kappa)
heavy: B1 heavy with N230P, Y231N, N235I
light: not shown
notes: copies: 2 + 2
B34: H237-MB717/MRAL-k0 (antibody, mouse IgG1, kappa)
heavy: B1 heavy with N230P, Y231N, N235P
light: not shown
notes: copies: 2 + 2
B35: H237-MB718/MRAL-k0 (antibody, mouse IgG1, kappa)
heavy: B1 heavy with N230P, Y231N, N235T
light: not shown
notes: copies: 2 + 2
B36: H237-MB719/MRAL-k0 (antibody, mouse IgG1, kappa)
heavy: B1 heavy with N230P, Y231N, N235Q
light: not shown
notes: copies: 2 + 2
B37: H237-MB793/MRAL-k0 (antibody, mouse IgG1, kappa)
heavy: B1 heavy with E229Q, N230P, Y231N, N235I
light: not shown
notes: copies: 2 + 2

Target: T1, mouse FcγRIII extracellular domain, …
Test: SPR Biacore T200, KD ratio
Method: (§1) Each altered antibody was analyzed for its interaction with each Fcγ receptor prepared above using Biacore T100 (GE Healthcare Japan Corp.), Biacore T200 (GE Healthcare Japan Corp.), Biacore A100, or Biacore 4000. The running buffer used was HBS-EP+ (GE Healthcare Japan Corp.). The assay temperature was set to 25° C. The sensor chips used were chips prepared by immobilizing Protein L (ACTIGEN or BioVision) onto Series S Sensor Chip CM5 (GE Healthcare Japan Corp.) or Series S Sensor Chip CM4 (GE Healthcare Japan Corp.) by the amine coupling method.
(§2) In order to calculate the KD value of each altered antibody for FcγR, kinetic analysis was conducted according to the following method: first, the antibody of interest was captured onto any of these chips and allowed to interact with mFcγR diluted with a running buffer. For the obtained sensorgram, the assay results were globally fit into the 1:1 Langmuir binding model using Biacore Evaluation Software to calculate an association rate constant ka (L/mol/s) and a dissociation rate constant kd (1/s). From these values, the dissociation constant KD (mol/L) was calculated.

Point of comparison: B17, “relative mFcγRIII-binding activity (mIgG1 = 1)” value 0.05 fold. Against it:
- B1 — higher, 0.21 fold
- B2 — higher, 0.29 fold
- B3 — higher, 0.14 fold
- B4 — higher, 0.15 fold
- B5 — higher, 0.08 fold
- B6 — higher, 0.38 fold
- B7 — higher, 0.18 fold
- B8 — higher, 0.13 fold
- B9 — higher, 0.08 fold
- B10 — higher, 0.14 fold
- B11 — higher, 0.3 fold
- B12 — higher, 0.2 fold
- B13 — higher, 0.15 fold
- B14 — higher, 0.1 fold
- B15 — higher, 0.64 fold
- B16 — higher, 0.51 fold
- B18 — lower, 0.04 fold
- B19 — higher, 0.06 fold
- B20 — higher, 0.1 fold
- B21 — higher, 0.07 fold
- B22 — higher, 0.06 fold
- B23 — higher, 0.08 fold
- B24 — higher, 0.06 fold
- B25 — higher, 0.87 fold
- B26 — higher, 0.75 fold
- B27 — lower, 0.03 fold
- B28 — lower, 0.04 fold
- B29 — higher, 1.22 fold
- B30 — higher, 2.5 fold
- B31 — higher, 1.61 fold
- B32 — lower, 0.02 fold
- B33 — the same, 0.05 fold
- B34 — lower, 0.03 fold
- B35 — the same, 0.05 fold
- B36 — higher, 2.31 fold
- B37 — the same, 0.05 fold

Target: T2, mouse FcγRII extracellular domain, …
Test: SPR Biacore T200, KD ratio
Method: as §1, §2

Point of comparison: B15, “relative mFcγRII-binding activity (mIgG1 = 1)” value 10.8 fold. Against it:
- B1 — lower, 2.52 fold
- B2 — lower, 5.06 fold
- B3 — lower, 4.41 fold
- B4 — lower, 2.6 fold
- B5 — lower, 0.75 fold
- B6 — lower, 4.91 fold
- B7 — lower, 1.06 fold
- B8 — lower, 1.47 fold
- B9 — lower, 1.87 fold
- B10 — lower, 1.66 fold
- B11 — lower, 4.55 fold
- B12 — lower, 1.17 fold
- B13 — lower, 4.38 fold
- B14 — lower, 1.05 fold
- B16 — lower, 3.89 fold
- B17 — lower, 0.24 fold
- B18 — lower, 0.3 fold
- B19 — lower, 0.28 fold
- B20 — lower, 0.41 fold
- B21 — lower, 0.27 fold
- B22 — lower, 0.4 fold
- B23 — lower, 1.77 fold
- B24 — lower, 0.51 fold
- B25 — higher, 14.1 fold
- B26 — lower, 8.71 fold
- B27 — lower, 0.28 fold
- B28 — lower, 0.61 fold
- B29 — higher, 50.8 fold
- B30 — higher, 23.5 fold
- B31 — higher, 14.2 fold
- B32 — lower, 0.89 fold
- B33 — lower, 3.98 fold
- B34 — lower, 0.41 fold
- B35 — lower, 0.85 fold
- B36 — higher, 70.4 fold
- B37 — lower, 1.17 fold
